Assay results published in patent US20210340238A1, “TGFß1 INHIBITORS AND USE THEREOF” (Scholar Rock, Inc., priority 2018, published 2021).

Assays:
[1] = in vivo, cited from earlier work
[2] = rat, in vivo
Experimental: Animals receiving pan-TGFβ antibody were dosed once intravenously (at day 1) at a volume of 10 mL/kg and sacrificed at day 8 and necropsies performed. […] Animals receiving LY2109761 were dosed by oral gavage once daily for five or seven days. Animals were sacrificed and necropsies performed.

[3] = system: TGFβ downstream tonic signaling; assay: TGFβ downstream tonic signaling in non-diseased rat BAL; assay type: in vivo

| Compound | Exposure: DN Cmax ([1]; human) | Exposure: Half-life ([1]; human) | Previously reported adverse events in human patients (CTCAE grade) [1] | Bone findings [2] | Effect on TGFβ downstream tonic signaling [3] |
| --- | --- | --- | --- | --- | --- |
| GC1008: human analog of 1D11, pan-TGFβ antibody Fresolimumab (GC1008) | DN Cmax~(350 ng/mL)mg (ng/mL)mg | Half-life: 21.7 d | leukocytosis (grade 3), fatigue (grade 3), hypoxia (grade 3), asystole (grade 5), leukopenia (grade 1), recurrent, transient, tender erythematous, nodular skin lesions, suppurative dermatitis, and herpes zoster | – | – |
| c1ccc(-c2nn3c(c2-c2ccnc4cc(OCCN5CCOCC5)ccc24)CCC3)nc1 [LY2109761] | – | – | – | macroscopic abnormally shaped sternum and microscopic increased thickness of the hypertrophic zone in the endplate of the sternum and physis of the femur and tibia | inhibit TGFβ downstream tonic signaling in non-diseased rat BAL |
